Measurements from publication PMC11558679, “Artificial Zymogen Based on Protein–Polymer Hybrids” (Biomacromolecules, 2024).
“And” between values parts separate entries of the source, which are not always exact repeats. Equal values may be shown once.

B1: TR-pCBMA hybrid: control without inhibitory domain; poly(CBMA) exclusively grafted from TR (conjugate, UniProt P00760 24-246, looked up)
Serine protease 1: IVGGYTCGANTVPYQVSLNSGYHFCGGSLINSQWVVSAAHCYKSGIQVRLGEDNINVVEGNEQFISASKSIVHPSYNSNTLNNDIMLIKLKSAASLNSRVASISLPTSCASAGTQCLISGWGNTKSSGTSYPDVLKCLKAPILSDSSCKSAYPGQITSNMFCAGYLEGGKDSCQGDSGGPVVCSGKLQGIVSWGSGCAQKNKPGVYTKVCNYVSWIKQTIASN
modifications: poly(CBMA) grafted

Experiments:
[1] = Biocatalytic assay (Michaelis–Menten) of CT and CT hybrids with suc-Ala-Ala-Pro-Phe-pNA; format: biochemical, bovine
Experimental: N-Succinyl-L-Ala-L-Ala-L-Pro-L-Phe-p-nitroanilide was used as a substrate for enzyme bioactivity assays. In a cuvette, 0.1 M sodium phosphate buffer (910–990 μL, pH 8.0), substrate (0–80 μL, 6 mg/mL in DMSO), and enzyme (10 μL, 0.1 mg CT/mL in 0.1 M sodium phosphate buffer (pH 8.0), 40 nM as final CT concentration) were mixed. The rate of hydrolysis was determined by recording the increase in absorbance at 412 nm for the first 45 s after mixing. KM and kcat values were calculated using the Enzfitter software when plotting substrate concentration versus initial hydrolysis velocity.

[2] = Biocatalytic assay (Michaelis–Menten) of TR and TR hybrids with Tos-Gly-Pro-Arg-pNA; format: biochemical, bovine; conditions: [TR]0 = 8.4 nM, [Tos-GPR-pNA]0 = 0–302 μM, 100 mM Tris–HCl and 20 mM CaCl2 (pH 8.0), 37 °C, absorbance 412 nm, first 45 s, Enzfitter
Experimental: N-Tosyl-L-Gly-L-Pro-L-Arg-p-nitroanilide was used as a substrate for enzyme bioactivity assays. In a cuvette, 0.1 M Tris HCl and 20 mM calcium chloride buffer (890–990 μL, pH 8.0), substrate (0–100 μL, 2 mg/mL in DMSO), and enzyme (10 μL, 0.02 mg TR/mL in 100 mM Tris–HCl and 20 mM calcium chloride (pH 8.0), 8.4 nM as final concentration) were mixed for enzyme bioactivity assays. The rate of hydrolysis was determined by recording the increase in absorbance at 412 nm for the first 45 s after mixing. KM and kcat values were calculated using Enzfitter software when plotting substrate concentration versus initial hydrolysis velocity. […]
Table S5. Char acterization and enzymatic activity of TR-pCBMA and inhibited pro- T R pol ymer h ybr i ds with different linkers between the inhibitory and cleavable peptide moieties.
SEC-M ALLS anal ysi s Michaelis-Menten parameters d
Mnb Mwb Đb DPc KM kcat kcat/KM samples kg mol-1 kg mol-1 (CBM A/inhibitor) (µM) (s-1) (µM-1 s-1) […]
SEC -MALLS and 1H NMR spectra. d conditions: [TR]0 = 8.4 nM, [Tos-GPR-pNA]0 = 0 - 302 µM, buffer 100 mM Tris-HCl and 20 mM CaCl2 (pH 8.0) at 37 °C. […]

[3] = [CT]0 = 40 nM, [suc-AAPFpNA]0 = 0–960 μM, 100 mM sodium phosphate (pH 8.0), 37 °C, absorbance 412 nm, first 45 s, Enzfitter

| Km ([1]; rounded value in comparison with Ki, read-out: KM of the peptide substrate for native CT) [µM] | Molecule | kcat [1, 3] [s^–1] | kcat/KM [1, 3] | Km ([1]; [CT]0 = 40 nM, [suc-AAPFpNA]0 = 0–960 μM, 100 mM sodium phosphate (pH 8.0), 37 °C, absorbance 412 nm, first 45 s, Enzfitter, read-out: KM) [µM] | kcat [2] [s^–1] | kcat/KM [2] [μM^–1 s^–1] | kcat/KM ([2]; listed as TR-pCBMA) | Km ([2]; read-out: KM) [µM] |
| --- | --- | --- | --- | --- | --- | --- | --- | --- |
|  | α-Chymotrypsin from bovine pancreas, Type II [native CT] | 43.6 | 0.484 μM^–1 s^–1 and 0.484 ± 0.069 μM^–1 s^–1 | 90.1 ± 12.5 |  |  |  |  |
| 90 | N-succinyl-L-Ala-L-Ala-L-Pro-L-Phe-p-nitroanilide [suc-Ala-Ala-Pro-Phe-pNA, reference compound] |  |  |  |  |  |  |  |
|  | B1 |  | 0.292 μM^–1 s^–1 |  | 45.7 ± 1.1 | 2.43 ± 0.36 | 2.43 ± 0.36 μM^–1 s^–1 and 2.43 μM^–1 s^–1 | 18.8 ± 2.8 |
